B1: TpsA (natural protein, Aspergillus niger, UniProt Q00075 1-517, looked up)
chain: MPSLENPTFQNEARLLLVSNRLPITIKRSDDGRYDFSMSSGGLVSGLSGLSKSTTFQWYGWPGLEVPEEEIPVVKERLKQEYNAVPVFIDDELADRHYNGFSNSILWPLFHYHPGEITFDESAWEAYKEANRLFAKAVAKEVQDGDLIWVHDYHLMLLPEMLREEIGDSKENVKIGFFLHTPFPSSEIYRILPVRNELLLGVLHCDLIGFHTYDYTRHFLSACSRLLGLTTTPNGIEFQGKIIACGAFPIGIDPEKFEEGLKKEKVQKRIAMLEQKFQGVKLMVGVDRLDYIKGVPQKLHALEVFLSDHPEWVGKVVLVQVAVPSRQDVEEYQNLRAVVNELVGRINGKFGTVEFMPIHFLHKSVNFDELIALYAVSDACIVSSTRDGMNLVAYEYIATQKKRHGVLVLSEFAGAAQSLNGSIIINPWNTEELAGAYQEAVTMSDEQRALNFSKLDKYVNKYTSAFWGQSFVTELTRISEHSAEKFHAKKASFSDNNSENGEPSNGVETPAQEQVAQ
notes: TpsA, putative trehalose-6-phosphate synthase of Aspergillus niger (Tps1 ortholog), gene tpsA, ANI_1_1406074; full-length cDNA / open reading frame; Cloned into both vectors; each fusion carries one of the two fragments (T25 or T18), not both. cDNA from A. niger N402 background; also called tpsA gene product; trehalose-6-phosphate synthase TpsA; source: bacterial two-hybrid fusion (pKT25 and …)
B2: TpsB (natural protein, Aspergillus niger, UniProt Q00217 1-480, looked up)
chain: MAANGSSSEGDHRLLIVSNRLPITIRRSGGGKYEFSMSSGGLVTGLSGLSKTTTFQWYGWPGLEVPEDEIDSVKQRLQEEFNATPVFMDDKLADRHYNGFSNSILWPLLHYHPGEIVFDEAAWDAYREANRLFAKTIAHEAREGDLVWVHDYHLMLLPEVLREELAALGKNNIRIGFFLHTPFPSSEIYRILPVRSQLLRGVLQCDLIGFHTYDYARHFLSCCSHILGLVTTPSSVKFKDRSVAVGAFPIGIDPDKFTEGLKSPKVQNRIASLENKFQGTKLMVSVDRLDYIKGIPQKLHALEVFLSQHPEWVGKVVLVQVAVPSRQDVEEYQNLRAVVNELVGRINGKFGTVDYMPIHFMHKSVSFDELIALYAASDACVVSSTRDGMNLVSFEYVATQQKRKGVLILSEFAGAAQSLNGSIVVNPWNTEELASAYHEAVSMSDDLRAQKFEKLYKYISKYTSAFWGKSFVAELSKCST
notes: TpsB, putative trehalose-6-phosphate synthase of Aspergillus niger (Tps1 ortholog), gene tpsB, ANI_1_1078064; full-length cDNA / open reading frame; Cloned into both vectors; each fusion carries one of the two fragments (T25 or T18), not both; also called tpsB gene product; trehalose-6-phosphate synthase TpsB; source: bacterial two-hybrid fusion (pKT25 and pUT18C), in E. coli BTH101

Tests used:
Test in all cases: two-hybrid; bacterial adenylate cyclase two-hybrid (BACTH System Kit); pKT25 and pUT18C fusions co-transformed into E. coli BTH101; LB with ampicillin, kanamycin and 0.5 mM IPTG, 100 rpm, 20°C, 72 h; β-galactosidase assay as units/mg dry weight; three to four independent assays
[1] = molecular target: B2
[2] = molecular target: TpsC (Aspergillus niger)
[3] = molecular target: the molecule itself
[4] = molecular target: B1; conditions: partners not purified
[5] = molecular target: TppA (Aspergillus niger)

Row | Molecule | β-galactosidase activity (two-hybrid) (units/mg dry weight bacteria) [1] | β-galactosidase activity (two-hybrid) (units/mg dry weight bacteria) [2] | β-galactosidase activity (two-hybrid) ([1]; partners not purified) | β-galactosidase activity (two-hybrid) [3] | β-galactosidase activity (two-hybrid) [4] | β-galactosidase activity (two-hybrid) (units/mg dry weight bacteria) [5]
1 | TppA (natural protein) | 691 |  |  |  |  | 
2 | TpsC (natural protein) | 688 | 1210 |  |  |  | 
3 | B1 |  |  | 1750 units/mg dry weight bacteria | 418 units/mg dry weight bacteria |  | 
4 | B2 |  | 441 |  | 1780 units/mg dry weight bacteria | 1590 units/mg dry weight bacteria | 581
